From PMC5633918, “The coproporphyrin ferrochelatase of Staphylococcus aureus: mechanistic insights into a regulatory iron-binding site” (Biochemical Journal, 2017)

Substrate: CC1=C(CCC(=O)O)c2cc3nc(cc4[nH]c(cc5[nH]c(cc1n2)c(C)c5CCC(=O)O)c(CCC(=O)O)c4C)C(CCC(=O)O)=C3C
Experiment: purified protein
Assay type: biochemical, Staphylococcus aureus
Conditions: 0.7 µM Fe2+ (sub-inhibitory), 0.1 M Tris-HCl pH 8.1, 0.5% sodium cholate, 0.5% Tween 20, 1 mM beta-mercaptoethanol, 30 °C

B1: S. aureus CpfC (coproporphyrin ferrochelatase) (Staphylococcus aureus subsp. aureus USA300) (protein)
chain: MTKKMGLLVMAYGTPYKESDIEPYYTDIRHGKRPSEEELQDLKDRYEFIGGLSPLAGTTDDQADALVSALNKAYADVEFKLYLGLKHISPFIEDAVEQMHNDGITEAITVVLAPHYSSFSVGSYDKRADEEAAKYGIQLTHVKHYYEQPKFIEYWTNKVNETLAQIPEEEHKDTVLVVSAHSLPKGLIEKNNDPYPQELEHTALLIKEQSNIEHIAIGWQSEGNTGTPWLGPDVQDLTRDLYEKHQYKNFIYTPVGFVCEHLEVLYDNDYECKVVCDDIGANYYRPKMPNTHPLFIGAIVDEIKSIF
notes: tag removal not mentioned
  Km: 1.5 ± 0.2 µM
  kcat: 0.175 ± 0.0067 s⁻¹
